Test results reported in IntAct's records for PubMed 29892012.

Key:
traf4_human TRAF4 = target: T1, traf4_human TRAF4 (UniProt Q9BUZ4)
T1 sequence: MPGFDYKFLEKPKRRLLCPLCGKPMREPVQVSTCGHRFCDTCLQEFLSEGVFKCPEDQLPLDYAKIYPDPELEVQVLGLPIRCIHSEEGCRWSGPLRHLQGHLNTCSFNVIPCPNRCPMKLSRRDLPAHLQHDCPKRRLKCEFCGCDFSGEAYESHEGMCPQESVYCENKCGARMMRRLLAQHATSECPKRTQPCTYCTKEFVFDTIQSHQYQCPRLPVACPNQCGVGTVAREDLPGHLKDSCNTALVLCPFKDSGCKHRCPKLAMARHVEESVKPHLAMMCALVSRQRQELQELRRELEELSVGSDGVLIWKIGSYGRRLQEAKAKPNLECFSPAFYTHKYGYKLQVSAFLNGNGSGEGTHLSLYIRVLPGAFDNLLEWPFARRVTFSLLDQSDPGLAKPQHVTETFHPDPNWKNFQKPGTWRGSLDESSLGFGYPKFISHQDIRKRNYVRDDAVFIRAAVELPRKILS

phs_human PCBD1 = target: T2, phs_human PCBD1 (UniProt P61457)
T2 sequence: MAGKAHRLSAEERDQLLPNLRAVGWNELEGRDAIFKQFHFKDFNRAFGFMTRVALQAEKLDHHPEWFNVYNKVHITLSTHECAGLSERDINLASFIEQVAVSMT

goga2_human GOLGA2 = target: T3, goga2_human GOLGA2 (UniProt Q08379)
T3 sequence: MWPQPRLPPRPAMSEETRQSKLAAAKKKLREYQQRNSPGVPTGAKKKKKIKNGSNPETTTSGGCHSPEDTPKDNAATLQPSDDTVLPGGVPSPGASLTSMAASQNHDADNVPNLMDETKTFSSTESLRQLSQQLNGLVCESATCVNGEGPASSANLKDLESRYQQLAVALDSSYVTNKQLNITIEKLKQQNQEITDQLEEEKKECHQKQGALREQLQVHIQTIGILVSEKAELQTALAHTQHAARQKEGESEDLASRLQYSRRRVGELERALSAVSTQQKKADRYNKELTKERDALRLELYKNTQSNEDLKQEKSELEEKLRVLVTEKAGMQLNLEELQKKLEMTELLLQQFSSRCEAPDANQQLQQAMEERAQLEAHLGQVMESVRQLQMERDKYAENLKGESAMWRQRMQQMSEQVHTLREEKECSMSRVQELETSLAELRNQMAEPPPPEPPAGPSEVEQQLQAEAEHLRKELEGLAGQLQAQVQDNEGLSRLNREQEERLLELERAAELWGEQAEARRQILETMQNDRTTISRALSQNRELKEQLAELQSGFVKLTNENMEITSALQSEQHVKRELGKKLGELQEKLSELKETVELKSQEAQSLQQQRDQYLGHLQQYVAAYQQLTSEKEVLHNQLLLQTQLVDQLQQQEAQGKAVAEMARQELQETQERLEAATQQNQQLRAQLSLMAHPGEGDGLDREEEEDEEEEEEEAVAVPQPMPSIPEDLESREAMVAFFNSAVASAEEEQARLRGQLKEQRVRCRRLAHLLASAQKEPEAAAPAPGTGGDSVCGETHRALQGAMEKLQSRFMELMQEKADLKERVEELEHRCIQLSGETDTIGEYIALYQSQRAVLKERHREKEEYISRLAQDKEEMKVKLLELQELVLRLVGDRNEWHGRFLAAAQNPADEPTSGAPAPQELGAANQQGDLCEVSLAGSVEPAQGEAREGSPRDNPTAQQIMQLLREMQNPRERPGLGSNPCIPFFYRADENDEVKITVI

ei2ba_human EIF2B1 = target: T4, ei2ba_human EIF2B1 (UniProt Q14232)
T4 sequence: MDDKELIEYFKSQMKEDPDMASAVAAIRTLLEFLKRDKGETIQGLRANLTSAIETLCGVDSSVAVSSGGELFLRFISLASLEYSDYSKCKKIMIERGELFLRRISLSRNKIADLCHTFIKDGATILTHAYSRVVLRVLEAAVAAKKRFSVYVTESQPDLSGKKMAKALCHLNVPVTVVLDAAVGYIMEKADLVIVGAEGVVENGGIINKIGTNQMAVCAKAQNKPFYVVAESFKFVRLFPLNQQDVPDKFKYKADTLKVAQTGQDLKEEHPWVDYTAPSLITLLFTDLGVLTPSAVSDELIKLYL

ca094_human C1orf94 = target: T5, ca094_human C1orf94 (UniProt Q6P1W5)
T5 sequence: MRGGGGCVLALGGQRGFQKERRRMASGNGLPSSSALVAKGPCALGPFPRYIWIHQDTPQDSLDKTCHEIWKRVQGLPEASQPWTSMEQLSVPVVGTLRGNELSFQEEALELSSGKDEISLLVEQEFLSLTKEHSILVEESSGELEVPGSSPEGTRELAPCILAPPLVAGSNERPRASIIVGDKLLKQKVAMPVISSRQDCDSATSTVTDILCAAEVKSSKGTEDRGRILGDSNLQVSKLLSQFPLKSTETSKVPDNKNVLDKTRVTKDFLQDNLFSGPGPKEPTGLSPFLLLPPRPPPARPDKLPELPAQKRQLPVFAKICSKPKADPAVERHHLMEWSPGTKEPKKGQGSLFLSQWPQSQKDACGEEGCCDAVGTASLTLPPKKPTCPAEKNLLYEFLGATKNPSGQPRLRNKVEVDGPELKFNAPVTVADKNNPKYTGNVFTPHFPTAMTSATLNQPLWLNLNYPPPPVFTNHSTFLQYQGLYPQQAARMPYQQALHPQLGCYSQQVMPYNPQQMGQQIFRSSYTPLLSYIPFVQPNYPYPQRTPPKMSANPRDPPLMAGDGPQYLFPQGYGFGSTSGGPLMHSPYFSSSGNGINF

traf2_human TRAF2 = target: T6, traf2_human TRAF2 (UniProt Q12933)
T6 sequence: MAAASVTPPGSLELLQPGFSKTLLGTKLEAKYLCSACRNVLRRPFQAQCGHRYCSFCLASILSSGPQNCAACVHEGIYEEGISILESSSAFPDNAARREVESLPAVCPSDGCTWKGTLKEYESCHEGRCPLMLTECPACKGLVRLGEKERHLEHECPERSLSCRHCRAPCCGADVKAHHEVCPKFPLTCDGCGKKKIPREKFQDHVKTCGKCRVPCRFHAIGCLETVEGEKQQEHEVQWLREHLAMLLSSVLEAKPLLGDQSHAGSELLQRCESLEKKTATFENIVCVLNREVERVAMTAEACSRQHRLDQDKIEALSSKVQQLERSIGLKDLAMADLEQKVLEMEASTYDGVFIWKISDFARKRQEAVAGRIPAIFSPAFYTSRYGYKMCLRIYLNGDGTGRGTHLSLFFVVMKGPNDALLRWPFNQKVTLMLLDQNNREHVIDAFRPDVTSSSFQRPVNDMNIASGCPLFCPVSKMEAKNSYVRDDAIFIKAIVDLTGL

Measured: effect of a mutation on the interaction

Golgi reassembly-stacking protein 2 (Homo sapiens) (from UniProt Q9H8Y8) L320R
with no effect: traf4_human TRAF4 | phs_human PCBD1 | goga2_human GOLGA2 | ei2ba_human EIF2B1 | ca094_human C1orf94 | traf2_human TRAF2
